Laboratory results published in US20120276009A1 (KATHOLIEKE UNIVERSITEIT LEUVEN, published 2012).

Experiments:
[1] = target: T1, full-length (441 aa) human Tau protein (human, UniProt P10636 1-758); test: ELISA, protein coated at 1 µg/mL
T1 construct: Non-phosphorylated recombinant protein bought from SignalChem; also called Full-length Tau; Tau40

[2] = target: T2, T1.6: Tau5-20 (non-phosphorylated peptide) (human); test: ELISA, peptide coated at 10 µg/mL
T2 construct: Non-phosphorylated counterpart of T1.5; also called Tau peptide
T2 peptide: RQEFEVMEDHAGTYGL

T1 sequence (P10636 other isoform, or with tags, fused parts or gaps limits assumed): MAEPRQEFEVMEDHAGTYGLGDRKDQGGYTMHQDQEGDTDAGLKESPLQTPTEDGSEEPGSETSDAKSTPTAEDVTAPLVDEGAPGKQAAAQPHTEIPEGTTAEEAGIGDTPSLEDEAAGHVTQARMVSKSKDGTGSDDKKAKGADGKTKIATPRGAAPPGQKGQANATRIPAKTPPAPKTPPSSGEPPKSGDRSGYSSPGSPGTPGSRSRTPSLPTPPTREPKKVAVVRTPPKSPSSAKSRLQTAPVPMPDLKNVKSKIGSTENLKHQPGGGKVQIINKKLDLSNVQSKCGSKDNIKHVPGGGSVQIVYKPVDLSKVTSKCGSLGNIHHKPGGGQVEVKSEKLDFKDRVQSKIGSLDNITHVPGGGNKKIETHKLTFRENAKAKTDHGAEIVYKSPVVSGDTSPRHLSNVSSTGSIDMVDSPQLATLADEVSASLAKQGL

B1: ACI-35-2G5-Ab1 (antibody, IgG2b, V domains shown)
VH: QVQLKQSGAELVRPGASVKLSCKASGYTFTDYYINWVKQRPGQGLEWIARIYPGRGNIYYNEKFKGKATLTAEKSSSTAYMQLSSLTSEDSAVYFCARFWDVTYWGQGTLVTVSA
VL: DVLMTQTPLSLPVSLGDQASISCRSSQSIVHSNGNTYLEWFLQKPGQSPKLLIYKVSNRFSGVPDRFSGSGSGTDFTLKISRVEAEDLGVYYCFQGSHVPYTFGGGTKLEIK
notes: Mouse monoclonal from hybridoma A6-2G5-08; also called A6-2G5-08
binding result [1]: no binding (tested: 20 µg/mL)

B2: ACI-33-6C10-Ab2 (antibody, IgG3, V domains shown)
VH: EVQLVESGGGLVKPGGSLKLSCAPSGFTFSDYGMHWVRQAPEKGLEWVAYISSGSSTIYYGDTVKGRFTISRDNAKNTLFLQMTSLRSEDTAMYYCARRGQLRLRLFAYWGQGTLVTVSA
VL: DIVMTQSHKFMSTSVGDRVSITCKASQDVSTAVAWYQQKPGQSPKLLIYSASYRYTGVPDRFTGSGSGTDFTFTISSVQAEDLAVYYCQQHYTTPLTFGAGTKLELK
notes: Mouse monoclonal from hybridoma 6C10E5E9C12 (DSM ACC3081); also called 6C10E5E9C12
binding result [2]: no binding (tested: 20 µg/mL)
